Measurements: patent US12467929

Legend:
[1] = biological target: recombinant UBE3A protein (Homo sapiens (Human)) (UniProt Q05086); test: 2-step Simoa; capture GTX; UBE3A 1.95 ng/ml
[2] = biological target: recombinant UBE3A protein (Homo sapiens (Human)) (UniProt Q05086); test: Simoa; capture GTX; SBG 75 pm; UBE3A 20.0 ng/ml
[3] = biological target: recombinant UBE3A protein (Homo sapiens (Human)) (UniProt Q05086); test: Simoa; capture GTX; SBG 150 pm; UBE3A 4.00 ng/ml
[4] = biological target: recombinant UBE3A protein (Homo sapiens (Human)) (UniProt Q05086); test: Simoa; capture GTX; SBG 75 pm; UBE3A 0.00128 ng/ml
[5] = biological target: recombinant UBE3A protein (Homo sapiens (Human)) (UniProt Q05086); test: Simoa; capture GTX; 3E5 0.2 ug/ml; UBE3A 20.0 ng/ml
[6] = biological target: recombinant UBE3A protein (Homo sapiens (Human)) (UniProt Q05086); test: Simoa; capture GTX; 3E5 0.4 ug/ml; UBE3A 4.00 ng/ml
[7] = biological target: recombinant UBE3A protein (Homo sapiens (Human)) (UniProt Q05086); test: Simoa; capture GTX; 3E5 0.8 ug/ml; UBE3A 4.00 ng/ml
[8] = biological target: recombinant UBE3A protein (Homo sapiens (Human)) (UniProt Q05086); test: Simoa; capture GTX; 3E5 0.4 ug/ml; UBE3A 0.800 ng/ml
[9] = biological target: recombinant UBE3A protein (Homo sapiens (Human)) (UniProt Q05086); test: Simoa; capture GTX; 3E5 0.1 ug/ml; UBE3A 0.0320 ng/ml
[10] = biological target: recombinant UBE3A protein (Homo sapiens (Human)) (UniProt Q05086); test: Simoa; capture GTX; 3E5 0.4 ug/ml; UBE3A 0.00128 ng/ml
[11] = biological target: recombinant UBE3A protein (Homo sapiens (Human)) (UniProt Q05086); test: Simoa head-to-head, Table 11; capture GTX; UBE3A 4.00 ng/ml
[12] = biological target: recombinant UBE3A protein (Homo sapiens (Human)) (UniProt Q05086); test: 3-step Simoa, 120 min bead step; capture GTX; UBE3A 500 ng/ml
[13] = biological target: recombinant UBE3A protein (Homo sapiens (Human)) (UniProt Q05086); test: Simoa head-to-head, Table 11; capture MS 2F6; UBE3A 4.00 ng/ml
[14] = biological target: recombinant UBE3A protein (Homo sapiens (Human)) (UniProt Q05086); test: Simoa head-to-head, Table 11; capture MS 2F6; UBE3A 0.032 ng/ml
[15] = biological target: recombinant UBE3A protein (Homo sapiens (Human)) (UniProt Q05086); test: 3-step Simoa, 120 min bead step; capture GTX; UBE3A 0.160 ng/ml
[16] = biological target: recombinant UBE3A protein (Homo sapiens (Human)) (UniProt Q05086); test: Simoa; capture GTX + helper beads; 3E5 0.1 ug/ml; UBE3A 4.00 ng/ml
[17] = biological target: recombinant UBE3A protein (Homo sapiens (Human)) (UniProt Q05086); test: Simoa; capture GTX + helper beads; 3E5 0.2 ug/ml; UBE3A 4.00 ng/ml
[18] = biological target: recombinant UBE3A protein (Homo sapiens (Human)) (UniProt Q05086); test: Simoa; capture GTX + helper beads; 3E5 0.2 ug/ml; UBE3A 0.0320 ng/ml
[19] = biological target: recombinant UBE3A protein (Homo sapiens (Human)) (UniProt Q05086); test: Simoa; capture GTX, no helper beads; 3E5 0.4 ug/ml; UBE3A 0.0320 ng/ml
[20] = biological target: recombinant UBE3A protein (Homo sapiens (Human)) (UniProt Q05086); test: Simoa; capture GTX, no helper beads; 3E5 0.4 ug/ml; UBE3A 0.00640 ng/ml

Chain of UniProt Q05086 (Q05086 whole entry): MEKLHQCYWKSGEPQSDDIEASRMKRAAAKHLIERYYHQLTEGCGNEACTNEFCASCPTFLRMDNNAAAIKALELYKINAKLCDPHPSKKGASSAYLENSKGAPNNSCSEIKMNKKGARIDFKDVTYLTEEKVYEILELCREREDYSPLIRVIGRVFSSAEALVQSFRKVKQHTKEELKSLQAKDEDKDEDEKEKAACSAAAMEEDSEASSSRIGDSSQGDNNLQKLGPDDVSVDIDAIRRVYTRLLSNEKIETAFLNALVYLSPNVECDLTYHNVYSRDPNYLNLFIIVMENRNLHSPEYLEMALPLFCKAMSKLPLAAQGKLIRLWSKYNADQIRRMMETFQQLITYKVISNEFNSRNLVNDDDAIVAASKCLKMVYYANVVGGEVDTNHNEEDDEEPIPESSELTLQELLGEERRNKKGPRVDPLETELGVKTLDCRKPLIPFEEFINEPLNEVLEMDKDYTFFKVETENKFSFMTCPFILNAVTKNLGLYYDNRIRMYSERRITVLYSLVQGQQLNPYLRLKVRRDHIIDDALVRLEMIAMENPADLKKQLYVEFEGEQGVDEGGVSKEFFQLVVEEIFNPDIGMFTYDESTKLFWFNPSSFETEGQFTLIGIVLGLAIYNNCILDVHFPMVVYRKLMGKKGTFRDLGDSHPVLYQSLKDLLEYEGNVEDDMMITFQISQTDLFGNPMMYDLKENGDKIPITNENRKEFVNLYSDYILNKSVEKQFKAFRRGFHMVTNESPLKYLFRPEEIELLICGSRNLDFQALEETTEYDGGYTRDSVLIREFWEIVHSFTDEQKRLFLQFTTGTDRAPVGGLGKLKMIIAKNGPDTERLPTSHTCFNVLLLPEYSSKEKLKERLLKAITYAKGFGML

NB500-240 (Novus) (antibody)
AEB1 [1]: 0.018 | AEB2 [1]: 0.0187 | Ave AEB [1]: 0.0184 | Signal to Background [1]: 5.62

anti-UBE3A antibody 3E5 (SAB1404508-100 ug, Millipore-Sigma)
AEB1 [2]: 2.44 | AEB2 [2]: 2.81 | AEB3 [2]: 2.75 | Average AEB [2]: 2.67 | Signal to Background [2]: 611 | AEB1 [3]: 0.907 | AEB2 [3]: 0.938 | AEB3 [3]: 0.927 | Average AEB [3]: 0.924 | Signal to Background [3]: 69.7 | AEB1 [4]: 0.0046 | AEB2 [4]: 0.0045 | AEB3 [4]: 0.0047 | Average AEB [4]: 0.0046 | Signal to Background [4]: 1.06 | AEB1 [5]: 6.38 | AEB2 [5]: 6.95 | AEB3 [5]: 6.77 | Average AEB [5]: 6.7 | Signal to Background [5]: 171 | AEB1 [6]: 2.3 | AEB2 [6]: 2.58 | AEB3 [6]: 2.4 | Average AEB [6]: 2.43 | Signal to Background [6]: 38.8 | AEB1 [7]: 3.18 | AEB2 [7]: 3.38 | AEB3 [7]: 3.16 | Average AEB [7]: 3.24 | Signal to Background [7]: 26.4 | AEB1 [8]: 0.509 | AEB2 [8]: 0.48 | AEB3 [8]: 0.478 | Average AEB [8]: 0.489 | Signal to Background [8]: 7.81 | AEB1 [9]: 0.0351 | AEB2 [9]: 0.04 | AEB3 [9]: 0.0401 | Average AEB [9]: 0.0384 | Signal to Background [9]: 1.99 | AEB1 [10]: 0.0769 | AEB2 [10]: 0.072 | AEB3 [10]: 0.0724 | Average AEB [10]: 0.0738 | Signal to Background [10]: 1.18 | AEB1 [11]: 0.269 | AEB2 [11]: 0.262 | Ave AEB [11]: 0.266 | Signal to Background [11]: 32.4 | AEB1 [12]: 16.8 | AEB2 [12]: 16.8 | Ave AEB [12]: 16.8 | Signal to Background [12]: 9850 | AEB1 [13]: 0.0868 | AEB2 [13]: 0.0803 | Ave AEB [13]: 0.0836 | Signal to Background [13]: 22.1 | AEB1 [14]: 0.0032 | AEB2 [14]: 0.0043 | Ave AEB [14]: 0.0037 | Signal to Background [14]: 0.986 | AEB1 [15]: 0.0398 | AEB2 [15]: 0.0389 | Ave AEB [15]: 0.0393 | Signal to Background [15]: 23.1 | AEB1 [16]: 0.639 | AEB2 [16]: 0.606 | Average AEB [16]: 0.623 | Signal to Background [16]: 109 | AEB1 [17]: 0.892 | AEB2 [17]: 0.846 | Average AEB [17]: 0.869 | Signal to Background [17]: 89.8 | AEB1 [18]: 0.0226 | AEB2 [18]: 0.0236 | Average AEB [18]: 0.0231 | Signal to Background [18]: 2.39 | AEB1 [19]: 0.0366 | AEB2 [19]: 0.037 | Average AEB [19]: 0.0368 | Signal to Background [19]: 1.88 | AEB1 [20]: 0.0228 | AEB2 [20]: 0.0232 | Average AEB [20]: 0.023 | Signal to Background [20]: 1.18
